Measurements: EP4803098A1 (Shandong Boan Biotechnology Co., Ltd., dated 2025)
Where two headings read alike, the source gives them in different places.

T1: GIPR on CHOK1-GIPR/GLP-1R cells (human, UniProt P48546 22-466)
T1 sequence (looked up): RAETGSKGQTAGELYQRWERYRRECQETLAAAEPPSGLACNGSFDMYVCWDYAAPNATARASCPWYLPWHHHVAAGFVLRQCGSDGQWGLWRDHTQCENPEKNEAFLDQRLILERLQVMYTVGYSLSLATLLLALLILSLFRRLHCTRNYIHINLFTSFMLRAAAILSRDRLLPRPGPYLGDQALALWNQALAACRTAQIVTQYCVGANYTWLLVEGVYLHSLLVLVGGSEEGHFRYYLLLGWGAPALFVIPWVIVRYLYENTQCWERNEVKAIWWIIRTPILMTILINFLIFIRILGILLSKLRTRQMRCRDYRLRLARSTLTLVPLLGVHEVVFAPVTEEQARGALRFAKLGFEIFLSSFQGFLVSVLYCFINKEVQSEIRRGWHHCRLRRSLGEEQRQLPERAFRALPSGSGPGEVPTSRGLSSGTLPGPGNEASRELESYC

T2: hGIPR-His protein (human, UniProt P48546 22-138)
T2 chain: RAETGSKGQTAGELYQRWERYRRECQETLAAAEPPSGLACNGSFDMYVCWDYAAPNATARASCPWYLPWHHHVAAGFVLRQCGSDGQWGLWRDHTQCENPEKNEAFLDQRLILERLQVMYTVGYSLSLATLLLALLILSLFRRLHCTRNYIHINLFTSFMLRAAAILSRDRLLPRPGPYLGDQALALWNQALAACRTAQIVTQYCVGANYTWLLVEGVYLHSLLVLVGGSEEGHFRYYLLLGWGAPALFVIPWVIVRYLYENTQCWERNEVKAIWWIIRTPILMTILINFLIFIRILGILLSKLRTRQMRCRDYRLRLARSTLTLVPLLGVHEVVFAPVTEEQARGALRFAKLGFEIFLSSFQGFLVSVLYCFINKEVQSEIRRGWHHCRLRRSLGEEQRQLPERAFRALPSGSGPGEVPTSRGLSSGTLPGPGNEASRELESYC

T3: mGIPR-Fc protein (mouse, UniProt Q0P543 19-134, limits assumed)
T3 construct: also called mouse GIPR-Fc protein; not shown: Fc part
T3 sequence (looked up): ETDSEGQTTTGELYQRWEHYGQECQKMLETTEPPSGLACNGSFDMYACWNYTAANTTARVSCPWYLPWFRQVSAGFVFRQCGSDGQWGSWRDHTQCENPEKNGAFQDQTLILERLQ


Experiments:
[1] = target: T1, GIPR on CHOK1-GIPR/GLP-1R cells; assay: cell-based or functional assay
hGIPR-His protein [2] = target: T2, hGIPR-His protein; assay: BLI (Octet), antibody captured on FAB2G sensor, hGIPR-His in solution, 1:1 model
hGIPR-His protein [3] = target: T2, hGIPR-His protein; assay: BLI (Octet), antibody captured on FAB2G sensor, hGIPR-His in solution
[4] = target: T1, GIPR on CHOK1-GIPR/GLP-1R cells; assay: flow cytometry on CHOK1-GIPR/GLP-1R cells
mGIPR-Fc protein = target: T3, mGIPR-Fc protein; assay: ELISA, mGIPR-Fc coated
[5] = target: T1, GIPR on CHOK1-GIPR/GLP-1R cells; assay: flow cytometry on CHOK1-GIPR/GLP-1R cells (run with BA191)
[6] = target: T1, GIPR on CHOK1-GIPR/GLP-1R cells; assay: flow cytometry on CHOK1-GIPR/GLP-1R cells (run with CE560)
[7] = target: T1, GIPR on CHOK1-GIPR/GLP-1R cells; assay: flow cytometry on CHOK1-GIPR/GLP-1R cells (run with CE947)
[8] = target: T1, GIPR on CHOK1-GIPR/GLP-1R cells; assay: flow cytometry on CHOK1-GIPR/GLP-1R cells (run with CA360)
[9] = target: T1, GIPR on CHOK1-GIPR/GLP-1R cells; assay: cell-based or functional assay; remark: listed apart in the source

Binder	IC50 (µg/mL), cAMP content [1] [µg/mL]	Kd (hGIPR-His protein [2]) [nM]	Response (hGIPR-His protein [3])	EC50 [4] [µg/mL]	Maximum binding value (RFU) [4] [RFU]	EC50 [5] [µg/mL]	EC50 [6] [µg/mL]	EC50 [7] [µg/mL]	EC50 [8] [µg/mL]	IC50 (µg/mL), cAMP content [9] [µg/mL]	binding result (mGIPR-Fc protein)
2G10 (antibody, V domains shown, also called control group 2G10) VH: not shown VL: EIVMTQSPATLSVSPGERATLSCRASQSVSSNLAWYQQKPGQAPRLLIYGAATRATGIPARVSGSGSGTEFTLTISSLQSEDFAVYYCQQYNNWPLTFGGGTKVEIKR	0.21	12.6	0.142	–	–	0.151	0.263	0.213	0.213	0.3	–
BA191 (antibody, human IgG1, kappa, L234A L235A, V domains shown, also called GIPR antibody BA191) VH: EVQLVQSGAEVKKPGSSVKVSCKASGGTFSTFSSYAISWVRQAPGQGLEWMGRIIPILGIGNNAQKFQGRVTITADKSTSTAYMELSSLRSEDTAVYYCAREKDWGHFDYWGQGTLVTVSS VL: DIQMTQSPSSLSASVGDRVTITCRASQGISNYLAWFQQKPGKAPKSLIYAASSLQSGVPSKFSGSGSGTDFTLTISSLQPEDFATYYCQQYNSYPITFGQGTRLEIKR	–	4.28	0.246	0.091	17600	–	–	–	–	0.04	no binding (tested: starting from 0.2 µg/mL)

The remaining binders from weak to strong by Kd (hGIPR-His protein [2]), led by results:

IC50 (µg/mL), cAMP content [1] [µg/mL]	Kd (hGIPR-His protein [2]) [nM]	Response (hGIPR-His protein [3])	EC50 [4] [µg/mL]	Maximum binding value (RFU) [4] [RFU]	EC50 [5] [µg/mL]	EC50 [6] [µg/mL]	EC50 [7] [µg/mL]	EC50 [8] [µg/mL]	IC50 (µg/mL), cAMP content [9] [µg/mL]	Binder	binding result (mGIPR-Fc protein)
0.2	3.07	0.246	0.328	281000	–	–	–	–	–	CA360 (antibody, human IgG1, kappa, L234A L235A, V domains shown, also called GIPR antibody CA360) VH: EVQLVQSGAEVKKPGSSVKVSCKASGGTFSGYPINWVRQAPGQGLEWMGRIIPIPGIPNYAQKFQDRVTITADKFANTAYMELSSLRSEDTAVYYCARDPLGPYVFDIWGQGTMVTVSS VL: not shown	–
0.14	2.63	0.222	0.206	492000	–	–	–	–	–	CE560 (antibody, human IgG1, kappa, L234A L235A, V domains shown, also called GIPR antibody CE560) VH: EVQLVQSGAEVKKPGSSVKVSCKASGGTFNNYAISWVRQAPGQGLEWMGRIIPFLDIASYAQKFQGKVTITADKSTSTAYMELSSLRSEDTAVYYCAREVDWGWFDSWGQGTLVTVSS VL: IQMTQSPSSLSASVGDRVTITCRASQGISSYLAWYQQKPGKAPKLLIYAASTLQSGVPSRFSGSGSGTDFTLTISSLQPEDFATYYCQQLNSYPLTFGGGTKVEIKR	no binding (tested: starting from 0.2 µg/mL)
–	1.13	0.19	0.131	311000	–	–	–	–	0.05	CE947 (antibody, human IgG1, kappa, L234A L235A, V domains shown, also called GIPR antibody CE947) VH: EVQLVQSGAEVKKPGSSVKVSCKASGGTFNNYAISWVRQAPGQGLEWMGRIIPFLDIASNAQKFQGKVTITADKSTSTAYMELSSLRSEDTAVYYCAREVDWGWFDSWGQGTLVTVSS VL: DIQMTQSPSSLSASVGDRVTITCRASQGISNYLAWFQQKPGKAPKSLIYAASSLQSGVPSRFSGSGSGTDFTLTISNLQPEDFATYYCLQYYDYPLTFGGGTKLEIKR	no binding (tested: starting from 0.2 µg/mL)
